# Data published in PMC11071473 (bioRxiv, 2024).
# Several values for one entry are separate records, joined by “and”; a condition that tells them apart may be missing. Identical values can stand only once.
# B1: human polymerase theta helicase domain (PolθH, residues 2–894) (domain or fragment, UniProt O75417 2-894, looked up)
# chain: NLLRRSGKRRRSESGSDSFSGSGGDSSASPQFLSGSVLSPPPGLGRCLKAAAAGECKPTVPDYERDKLLLANWGLPKAVLEKYHSFGVKKMFEWQAECLLLGQVLEGKNLVYSAPTSAGKTLVAELLILKRVLEMRKKALFILPFVSVAKEKKYYLQSLFQEVGIKVDGYMGSTSPSRHFSSLDIAVCTIERANGLINRLIEENKMDLLGMVVVDELHMLGDSHRGYLLELLLTKICYITRKSASCQADLASSLSNAVQIVGMSATLPNLELVASWLNAELYHTDFRPVPLLESVKVGNSIYDSSMKLVREFEPMLQVKGDEDHVVSLCYETICDNHSVLLFCPSKKWCEKLADIIAREFYNLHHQAEGLVKPSECPPVILEQKELLEVMDQLRRLPSGLDSVLQKTVPWGVAFHHAGLTFEERDIIEGAFRQGLIRVLAATSTLSSGVNLPARRVIIRTPIFGGRPLDILTYKQMVGRAGRKGVDTVGESILICKNSEKSKGIALLQGSLKPVRSCLQRREGEEVTGSMIRAILEIIVGGVASTSQDMHTYAACTFLAASMKEGKQGIQRNQESVQLGAIEACVMWLLENEFIQSTEASDGTEGKVYHPTHLGSATLSSSLSPADTLDIFADLQRAMKGFVLENDLHILYLVTPMFEDWTTIDWYRFFCLWEKLPTSMKRVAELVGVEEGFLARCVKGKVVARTERQHRQMAIHKRFFTSLVLLDLISEVPLREINQKYGCNRGQIQSLQQSAAVYAGMITVFSNRLGWHNMELLLSQFQKRLTFGIQRELCDLVRVSLLNAQRARVLYASGFHTVADLARANIVEVEVILKNAVPFKSARKAVDEEEEAVEERRNMRTIWVTGRKGLTEREAAALIVEEARMILQQDLVEM
# Target: the molecule itself
# Assay: cryo-EM structure
protein,measurement,value
B1,stoichiometry N,4 and 2
